Legend:
[1] = molecular target: HIV-1 JRFL Env (gp41 N-trimer region) (HIV-1 JRFL); experiment: cell-based or functional assay
[2] = molecular target: HIV-1 HXB2 Env (gp41 N-trimer region) (HIV-1 HXB2, UniProt P04578 33-856); experiment: cell-based or functional assay
[3] = molecular target: T1, IZN36 (biotinylated Cys-Gly-Gly-Asp-IZN36, His tag removed); experiment: SPR, immobilised IZN36; compared with MBP-C37
T1 construct: also called biotinylated IZN36

Row | Binder | IC50, viral infectivity JRFL [1] | IC50 ratio JRFL (viral infectivity), relative to C37 [1] | IC50, cell-cell fusion (HXB2 Env) [2] | IC50, viral infectivity HXB2 [2] | IC50 ratio (cell-cell fusion), relative to C37 [2] | IC50 ratio HXB2 (viral infectivity), relative to C37 [2] | KD difference from MBP-C37 [3]
1 | SSSSSGGHTTWMEWDREINNYTSLIHSLIEESQNQQEKNEQELLHHHHHH (other) [MBP-C37] | 1870 nM | 228 | 192 nM | 206 nM | 225 | 74.8 | –
2 | MBP1-C37 (other, domain: C-peptide (C37)) SSSGGGSGGGSGGGSSSSGGHTTWMEWDREINNYTSLIHSLIEESQNQQEKNEQELLHHHHHH | 640 nM | – | – | 88.9 nM | – | – | < 20%
3 | MBP2-C37 (other, domain: C-peptide (C37)) SSSGGGSGGGSGGGSSGGGSGGGSGGGSSSSGGHTTWMEWDREINNYTSLIHSLIEESQNQQEKNEQELLHHHHHH | 516 nM | – | – | 79.2 nM | – | – | < 20%
